What was measured:
peptide on HLA-A*02:01 [1] = target: T1, peptide on HLA-A*02:01 (human); assay: cytokine release
T1 peptide: KLLEIAANC

[2] = target: T2, MCPyV T antigen homolog (C9A of …) peptide on HLA-A*02:01 (human); assay: cytokine release
T2 peptide: KLLEIAPNA

[3] = target: T3, MCPyV Large-T sequence variant peptide on HLA-A*02:01 (human); assay: cytokine release
T3 peptide: KLLEISPNC

[4] = target: T4, MCPyV Large-T sequence variant peptide on HLA-A*02:01 (human); assay: cytokine release
T4 peptide: KLLEITPNC

peptide on HLA-A*02:01 [5] = target: T5, peptide on HLA-A*02:01 (human); assay: cytokine release
T5 peptide: KALEIAPNC

[6] = target: T6, Merkel cell polyomavirus (MCPyV) T antigen (Large-T antigen) peptide on HLA-A*02:01 (human); assay: multimer staining
T6 peptide: KLLEIAPNC

[7] = target: T6, Merkel cell polyomavirus (MCPyV) T …; assay: killing
peptide on HLA-A*02:01 [8] = target: T7, peptide on HLA-A*02:01 (human); assay: cytokine release
T7 peptide: ALLEIAPNC

Measured: binding result

B1: TCR1007 (TCR, V domains shown)
Valpha: QQQVKQSPQSLIVQKGGISIINCAYENTAFDYFPWYQQFPGKGPALLIAIRPDVSEKKEGRFTISFNKSAKQFSLHIMDSQPGDSATYFCAVPNTGNQFYFGTGTSLTVIP
Vbeta: GAGVSQSPRYKVAKRGQDVALRCDPISGHVSLFWYQQALGQGPEFLTYFQNEAQLDKSGLPSDRFFAERPEGSVSTLKIQRTQQEDSAVYLCASSLIAGLSYEQYFGPGTRLTVT
not listed: [7] | peptide on HLA-A*02:01 [8]
recognises: all other assays above

B2: TCR1072 (TCR, V domains shown)
Valpha: RKEVEQDPGPFNVPEGATVAFNCTYSNSASQSFFWYRQDCRKEPKLLMSVYSSGNEDGRFTAQLNRASQYISLLIRDSKLSDSATYLCVVTGTGGFKTIFGAGTRLFVKA
Vbeta: GEEVAQTPKHLVRGEGQKAKLYCAPIKGHSYVFWYQQVLKNEFKFLISFQNENVFDETGMPKERFSAKCLPNSPCSLEIQATKLEDSAVYFCASSSMSIAAGNTGELFFGEGSRLTVL
recognises: [7] | [2] | peptide on HLA-A*02:01 [8]
